This note sets out measurements from paper PMC5367257 (RNA Biology, 2017).

Series [1] concerns the target His-PABP-Flag (wild-type full-length human poly(A)-binding protein) (human, UniProt P11940 1-636). Description: pull-down.
A further series deals with WT PABP (human, UniProt P11940 1-636). The series is described as follows: EMSA. For orientation: In EMSA bound probe runs differently from free probe, usually more slowly.
The next series addresses PABP 2-3 mt (human, UniProt P11940 1-175+=[…]+190-636, internal_change). The series is described as follows: EMSA.

B1: His-eIF4G-N (truncated human eIF4GI, amino acids 42–653, with the PABP- and eIF4E-binding sites) (domain or fragment)
chain: NTPSQPRQHFYPSRAQPPSSAASRVQSAAPARPGPAAHVYPAGSQVMMIPSQISYPASQGAYYIPGQGRSTYVVPTQQYPVQPGAPGFYPGASPTEFGTYAGAYYPAQGVQQFPTGVAPTPVLMNQPPQIAPKRERKTIRIRDPNQGGKDITEEIMSGARTASTPTPPQTGGGLEPQANGETPQVAVIVRPDDRSQGAIIADRPGLPGPEHSPSESQPSSPSPTPSPSPVLEPGSEPNLAVLSIPGDTMTTIQMSVEESTPISRETGEPYRLSPEPTPLAEPILEVEVTLSKPVPESEFSSSPLQAPTPLASHTVEIHEPNGMVPSEDLEPEVESSPELAPPPACPSESPVPIAPTAQPEELLNGAPSPPAVDLSPVSEPEEQAKEVTASMAPPTIPSATPATAPSATSPAQEEEMEEEEEEEEGEAGEAGEAESEKGGEELLPPESTPIPANLSQNLEAAAATQVAVSVPKRRRKIKELNKKEAVGDLLDAFKEANPAVPEVENQPPAGSNPGPESEGSGVPPRPEEADETWDSKEDKIHNAENIQPGEQKYEYKSDQWKPLNLEEKKRYDREFLLGFQFIFASMQKPEGLPHISDVVLDKANKTPLRPLD
In the case of B1, the “fold increase of binding with eIF4E against without eIF4E” value in series [1] is around 3 fold.

B2: poly(A)25 RNA (ssRNA)
RNA: AAAAAAAAAAAAAAAAAAAAAAAAA
Take B2: the Kd in the series with WT PABP was around 5.9 nM; in the series with PABP 2-3 mt, around 6.9 nM.

One may read the Kd as the free concentration of one partner at which half of the binding sites on the other are occupied at equilibrium, for simple one-to-one binding. The low end stands for tighter binding, the high end for weaker binding.
